The text below walks through data of US5962246A.

Substrate in this data set: O=c1ccn([C@H]2C[C@H](O)[C@@H](COP(=O)(O)OP(=O)(O)OP(=O)(O)O)O2)c(=O)[nH]1
In words: purified protein, by the assay type. As to conditions: other: substrate dUTP, 20 mM Tris-HCl pH 7.5, 37° C., purified recombinant DUT-N.

B1: recombinant human dUTPase nuclear isoform DUT-N (Seq. ID No. 2), expressed in baculovirus/Sf21 insect cells (Homo sapiens) (protein)
chain: MPCSEETPAISPSKRARPAEVGGMQLRFARLSEHATAPTRGSARAAGYDLYSAYDYTIPPMEKAVVKTDIQIALPSGCYGRVAPRSGLAAKHFIDVGAGVIDEDYRGNVGVVLFNFGKEKFEVKKGDRIAQLICERIFYPEIEEVQALDDTERGSGGFGSTGKN
As for B1, the Km – broadly, the concentration of substrate that gives half-maximal velocity – stood at 2.5 µM.
